Measured values reported in PMC3807213 (Journal of molecular biology, 2012).

B1: EcoP15I modification (Mod) subunit (enzyme, UniProt P12364 1-644, looked up)
chain: MKKETIFSEVETANSKQLAVLKANFPQCFDKNGAFIQEKLLEIIRASEVELSKESYSLNWLGKSYARLLANLPPKTLLAEDKTHNQQEENKNSQHLLIKGDNLEVLKHMVNAYAEKVKMIYIDPPYNTGKDGFVYNDDRKFTPEQLSELAGIDLDEAKRILEFTTKGSSSHSAWLTFIYPRLYIARELMREDGTIFISIDHNEFSQLKLVCDEIFGEQNHVGDLVWKNATDNNPSNIAVEHEYIIVYTKNKEQLISEWKSNISDVKNLLVNIGEEFASKYTGNELQEKYTQWFREHRSELWPLDRYKYIDKDGIYTGSQSVHNPGKEGYRYDIIHPKTKKPCKQPLMGYRFPLDTMDRLLSEEKIIFGDDENKIIELKVYAKDYKQKLSSVIHLDGRVATNELKELFPEMTQPFTNAKTIKLVEDLISFACDGEGIVLDFFAGSGTTAHTVFNLNNKNKTSYQFITVQLDEPTKDKSDAMKHGYNTIFDLTKERLIRASKKNRDQGFKVYQLMPDFRAKDESELTLSNHTFFDDVVLTPEQYDTLLTTWCLYDGSLLTTPIEDVDLGGYKAHLCDGRLYLIAPNFTSEALKALLQKVDSDKDFAPNKVVFYGSNFESAKQMELNEALKSYANKKSIELDLVVRN

Legend:
[1] = target: B1; test: AUC + other: dynamic light scattering
[2] = target: the molecule itself; test: AUC

Binder	stoichiometry N [1]	stoichiometry N [2]
EcoP15I restriction (Res) subunit (enzyme, UniProt Q5ZND2 1-970, looked up) MSKGFTLEKNLPHQKAGVDAVMNVFVSATPHLTDNVAVRLLANPELKLSEQQYYNNIKNVQAFNGIAHSKDNHNAKSNIIDVSMETGTGKTYTYIKTIFDLNKSFGINKFIIIVPTLSIKAGTVNFLKSDALKEHFRDDYKRELRTYVVESQKNAGKNTKSYMPQAIHDFVEASNFNKKYIHVLVINSGMINSKSLTDTYDTGLLDNQFNTPVDALRAVKPFIIIDEPHRFPTGKKTWENIEKFNAQYIIRYGATFSEGYKNLVYRLTAVDAFNDDLVKGIDAYIEDIVGDGNANLKFVKSDGKEATFELNENNNKKSFKLAKGESLSKTHSAIHDLTLDALNKSTAVLSNGIELKIGSSINPYSYDQTLADNMMRKAVKEHFKLEKELLTQRPRIKPLTLFFIDDIEGYRDGNDISGSLKTKFEEYVLAEANELLKTEQDAFYKNYLEKTVTNISSVHGGYFSKDNSDKDDKIEQEINEILHDKELLLSLDNPRRFIFSKWTLREGWDNPNVFQICKLRSSGSTTSKLQEVGRGLRLPVNEYMCRVKDRNFTLKYYVDFTEKDFVDSLVKEVNESSFKERVPSKFTQELKEQIMAQYPELSSRALMNELFNDEIIDDNDNFKDSDAYSRLKSKYPAAFPIGVKPGKIKKATDGKRRTKMRVGKFSELKELWDLINQKAVIEYKINSESEFLSIFKSFMLEETERFTKSGVHTRIDKIYIHNDMAMSKSIVSDDDDFAKLNTMSYREFLDNLSQTIFVKHGTLHKVFCDIKDTINITEYLNIQTIRKIKSGFSKYLLNNSFNKFSLGYNLISGSIHPTKFTNADGNPLGEVLSSDLGVLQDNAKAPLDTYLFEEVFYDSELERRNITDREIQSVVVFSKIPKNSIKIPVAGGYTYSPDFAYVVKTAEGDYLNFIIETKNVDSKDSLRLEEKRKIEHAQALFNQISQSVKVEFRTQFANDDIYQLIKSALP	1 Res per Mod (2:2)	
B1		2
